According to patent publication US20100135948A1 (University of Pennsylvania, published 2010):
Where no end group is shown, it is not given here.

B1: control peptide phage displaying a non-consensus sequence (peptide, not shown: large carriers)
peptide: DLNYFTLSSKRE
modifications: also: displayed on phage, fused to pIII coat protein, linker not given here
notes: Control phage clone; tested as phage particle; also called control phage
B2: P4 peptide phage (peptide, not shown: large carriers)
peptide: ANKTSPFLMWRL
modifications: also: displayed on phage, fused to pIII
notes: Monoclonal phage clone from round 3 of screening with (D31)2/29 IgG; tested as phage particle
B3: P7 peptide phage (peptide, not shown: large carriers)
peptide: YSNKTPHLQWRL
modifications: also: displayed on phage, fused to pIII coat protein, linker not given here
notes: Monoclonal phage clone; tested as phage particle
B4: P14 peptide phage (peptide, not shown: large carriers)
peptide: TTLTLRH
modifications: also: displayed on phage, fused to pIII
notes: as for B3
B5: P10 peptide phage (peptide, not shown: large carriers)
peptide: QHNKSPNLYWRS
modifications: also: displayed on phage, fused to pIII
notes: as for B3
B6: P5 peptide phage (peptide, not shown: large carriers)
peptide: WANKQPTIIWRS
modifications: also: displayed on phage, fused to pIII coat protein, linker not given here
notes: as for B3
B7: P8 peptide phage (peptide, not shown: large carriers)
peptide: TDKTPFLLWRVH
modifications: also: displayed on phage, fused to pIII coat protein, linker not given here
notes: as for B3
B8: P9 peptide phage (peptide, not shown: large carriers)
peptide: AKNPPTLIWKHT
modifications: also: displayed on phage, fused to pIII coat protein, linker not given here
notes: as for B3

Columns and labels:
(D31)2/29 scFv = target: T1, (D31)2/29 scFv; test: ELISA inhibition, monoclonal peptide phage preincubated with PV scFv, Dsg plate (Dsg3 by paragraph 281)
T1 construct: also called pathogenic PV mAb
Procedure: (§1) For ELISA inhibition assays, anti-idiotypic reagents were pre-incubated with PV mAbs for one hour at 37° C. prior to incubation on Dsg3 or Dsg1 ELISA plates (Rhigene/MBL), which were otherwise processed according to manufacturer's instructions. Anti-idiotypic antisera were effective and dose responsive at dilutions ranging from 1:3 to 1:6400, while peptide phage were used in inhibition assays from 10⁸ to 10¹⁰ pfu/well. PV scFv binding, detected with HRP-conjugated anti-HA secondary antibody (Roche), was titrated to a final OD450 reading of 0.4-1.0, which was within the linear range of detection.
(§2) Select peptide phage were tested for their ability to inhibit binding of PV mAbs to Dsg substrates by ELISA (Table 4).

(D31)12b/6 scFv = target: T2, (D31)12b/6 scFv; test: as above
T2 construct: also called nonpathogenic PV mAb
Procedure: as §1, §2

(D3)1d/2c scFv = target: T3, (D3)1d/2c scFv; test: as above
T3 construct: also called nonpathogenic PV mAb
Procedure: as §1, §2

(D31)2/28 scFv = target: T4, (D31)2/28 scFv; test: as above
T4 construct: Human anti-Dsg3/Dsg1 scFv from the PV(1) phage library (pComb3X, nickel-purified, HA-detected); also called pathogenic PV mAb
Procedure: as §1, §2

(D3)3c/9 scFv = target: T5, (D3)3c/9 scFv; test: as above
T5 construct: also called pathogenic PV mAb
Procedure: as §1, §2

desmoglein 3 = target: T6, desmoglein 3 (human, UniProt P32926 50-615, limits assumed); test: ELISA
T6 construct: Antigen on commercial ELISA plates; also called Dsg3; Dsg 3
T6 sequence (looked up): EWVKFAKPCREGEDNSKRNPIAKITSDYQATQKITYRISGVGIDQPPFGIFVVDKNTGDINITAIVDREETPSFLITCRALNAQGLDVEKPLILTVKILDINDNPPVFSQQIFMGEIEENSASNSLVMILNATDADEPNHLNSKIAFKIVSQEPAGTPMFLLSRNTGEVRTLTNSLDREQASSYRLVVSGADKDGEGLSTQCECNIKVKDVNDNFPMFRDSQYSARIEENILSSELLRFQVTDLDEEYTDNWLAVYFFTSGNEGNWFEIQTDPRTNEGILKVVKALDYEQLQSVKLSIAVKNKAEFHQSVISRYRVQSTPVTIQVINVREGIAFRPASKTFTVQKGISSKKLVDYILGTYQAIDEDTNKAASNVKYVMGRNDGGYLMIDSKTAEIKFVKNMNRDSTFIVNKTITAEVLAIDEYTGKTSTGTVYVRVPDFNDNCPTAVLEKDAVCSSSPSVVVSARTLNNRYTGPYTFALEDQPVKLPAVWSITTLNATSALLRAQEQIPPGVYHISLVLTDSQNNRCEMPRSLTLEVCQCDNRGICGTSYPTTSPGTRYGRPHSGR

Binder	percent inhibition ((D31)2/29 scFv) [%]	percent inhibition ((D31)12b/6 scFv) [%]	percent inhibition ((D3)1d/2c scFv) [%]	percent inhibition ((D31)2/28 scFv) [%]	percent inhibition ((D3)3c/9 scFv) [%]	binding result (desmoglein 3)
B1	15	11	8	2	8	
B2	78	10	14	9	7	no binding
B3	83	8	9	12	6	no binding
B4	16	13	8	15	5	no binding
B5						no binding
B6						no binding
B7						no binding
B8						no binding
